# Reference: the supplement of paper PMC7877785
# ± gives the uncertainty stated by the source.
# Assay: self-splicing fitness, log relative to wild type (ln ratio); higher = more splicing; Tetrahymena group I intron in knt gene, E. coli kanamycin selection, DiMSum; sequences stand for … in CUCUCU…GGAGGGAAAAGUUAUCAGGCAUGCACCUGGUAGCUAGUCUUUAAACCAAUAGAUUGCAUCGGUUUAAAAGGCAAGACCGUCAAAUUGCGGGAAAGGGGUCAACAGCCGUUCAGUACCAAGUCUCAGGGGAAACUUUGAGAUGGCCUUGCAAAGGGUAUGGUAAUAAGCUGACGGACAUGGUCCUAACCACGCAGCCAAGUCCUAAGUCAACAGAUCUUCUGUUGAUAUGGAUGCAGUUCACAGACUAAAUGUCGGUCGGGGAAGAUGUAUUCUUCUCAUAAGAUAUAGUCGGACCUCUCCUUAAUGGGAGCUAGCGGAUGAAGUGAUGCAACACUGGAGCCGCUGGGAACUAAUUUGUAUGCGAAAGUAUAUUGAUUAGUUUUGGAGUACUCGUGGUCG
# How it was run: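 Fitness was computed with DiMSum as the error-weighted combination of replicate fold changes, kanamycin versus none, each normalised to wild type. The library randomised all eight intron nucleotides of the P1ex region, with the intron placed in the knt kanamycin-resistance gene on pET-22b(+) in E. coli BL21(DE3). Six replicate transformations were grown overnight at 37°C or 30°C on LB agar with or without 25 μg/mL kanamycin, plus 100 μg/mL carbenicillin, 50 μM IPTG and 0.2% rhamnose. Pooled colonies were amplicon-sequenced on an Illumina HiSeq 2500.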
Sequence,self-splicing fitness (ln) (30 °C),self-splicing fitness (ln) (37 °C)
UACCAGCAAUAUUACGUACC,-2.33 ± 0.11,-2.23 ± 0.17
UACCAGCAAUAUUACGUAUA,-0.615 ± 0.058,-0.199 ± 0.072
UACCAGCAAUAUUACGUCAC,-4.46 ± 0.42,-2.32 ± 0.35
UACCAGCAAUAUUACGUGCA,-0.43 ± 0.065,0.246 ± 0.09
UACCAGCAAUAUUACGUUGC,-4.31 ± 0.32,-2.6 ± 0.25
UACGAGCAAUAUUACGACCG,-1.8 ± 0.45,
UACGAGCAAUAUUACGAUAG,-3.66 ± 0.47,-2.31 ± 0.42
UACGAGCAAUAUUACGCAAA,-2.36 ± 0.28,-1.67 ± 0.47
UACGAGCAAUAUUACGCGAG,-2.49 ± 0.15,-0.597 ± 0.14
UACGAGCAAUAUUACGCGGG,-2.83 ± 0.22,-2.41 ± 0.45
UACGAGCAAUAUUACGCUGA,-3 ± 0.26,-2.02 ± 0.24
UACGAGCAAUAUUACGCUUG,-2.75 ± 0.32,
UACGAGCAAUAUUACGGACC,-3.28 ± 0.24,-3.19 ± 0.43
UACGAGCAAUAUUACGGGUA,-1.64 ± 0.14,-1.43 ± 0.14
UACGAGCAAUAUUACGGUCA,-1.39 ± 0.11,-0.173 ± 0.11
UACGAGCAAUAUUACGGUGG,-3.62 ± 0.14,-2.13 ± 0.11
UACGAGCAAUAUUACGGUUG,-2.72 ± 0.13,-2.11 ± 0.16
UACGAGCAAUAUUACGUACC,,-1.17 ± 0.36
UACGAGCAAUAUUACGUCCU,-2.87 ± 0.22,-1.38 ± 0.19
UACGAGCAAUAUUACGUGAG,-3.28 ± 0.16,-3.58 ± 0.24
UACGAGCAAUAUUACGUGCG,-3.07 ± 0.15,-1.97 ± 0.18
UACGAGCAAUAUUACGUGUA,-3.39 ± 0.2,-2.21 ± 0.16
UACGAGCAAUAUUACGUUCG,-3.48 ± 0.25,-2.76 ± 0.25
UACGAGCAAUAUUACGUUUC,-2.65 ± 0.32,-1.69 ± 0.24
UACUAGCAAUAUUACGAAAA,-2.6 ± 0.35,-2.26 ± 0.42

Sequence,self-splicing fitness (ln) (30 °C),self-splicing fitness (ln) (37 °C)
UACUAGCAAUAUUACGAAGU,-3.85 ± 0.42,-2.32 ± 0.41
UACUAGCAAUAUUACGAGCA,-0.343 ± 0.12,0.447 ± 0.15
UACUAGCAAUAUUACGCAUA,-1.99 ± 0.14,-0.0544 ± 0.09
UACUAGCAAUAUUACGCGAU,-2.84 ± 0.18,-2.5 ± 0.18
UACUAGCAAUAUUACGCGUC,-2.73 ± 0.14,-1.81 ± 0.14
UACUAGCAAUAUUACGCGUG,-1.21 ± 0.079,-0.559 ± 0.089
UACUAGCAAUAUUACGCUGG,-4.47 ± 0.39,-1.78 ± 0.24
UACUAGCAAUAUUACGCUUG,-1.44 ± 0.1,-1.64 ± 0.14
UACUAGCAAUAUUACGCUUU,-2.09 ± 0.11,-2.16 ± 0.17
UACUAGCAAUAUUACGGACU,-0.895 ± 0.12,-0.214 ± 0.17
UACUAGCAAUAUUACGGCUC,-1.67 ± 0.19,-0.765 ± 0.18
UACUAGCAAUAUUACGGUGA,-1.54 ± 0.11,-0.0276 ± 0.12
UACUAGCAAUAUUACGUAAA,-1.66 ± 0.12,-0.614 ± 0.14
UACUAGCAAUAUUACGUCAC,-3.47 ± 0.26,
UACUAGCAAUAUUACGUCCU,-1 ± 0.13,-1.26 ± 0.15
UACUAGCAAUAUUACGUCUU,-2.11 ± 0.13,-1.27 ± 0.14
UACUAGCAAUAUUACGUGCG,-0.684 ± 0.08,-1.31 ± 0.1
UACUAGCAAUAUUACGUGGU,-2.87 ± 0.14,-2.75 ± 0.17
UAGAAGCAAUAUUACGAACC,-2.02 ± 0.24,-0.44 ± 0.3
UAGAAGCAAUAUUACGAAGU,-3.7 ± 0.4,-1.17 ± 0.22
UAGAAGCAAUAUUACGACAC,-1.77 ± 0.43,-2.07 ± 0.25
UAGAAGCAAUAUUACGAGAU,-3.64 ± 0.33,-2.16 ± 0.23
UAGAAGCAAUAUUACGAGUC,-2.76 ± 0.39,-2.02 ± 0.33
UAGAAGCAAUAUUACGAUCC,-2.25 ± 0.23,-1.45 ± 0.3
UAGAAGCAAUAUUACGCAUA,-1.55 ± 0.17,-1.36 ± 0.12

Sequence,self-splicing fitness (ln) (30 °C),self-splicing fitness (ln) (37 °C)
UAGAAGCAAUAUUACGCCCA,-0.128 ± 0.15,0.21 ± 0.25
UAGAAGCAAUAUUACGCCCC,-3.03 ± 0.2,-1.63 ± 0.23
UAGAAGCAAUAUUACGCCUU,-1.03 ± 0.22,-1.38 ± 0.26
UAGAAGCAAUAUUACGCGAU,-2.95 ± 0.41,
UAGAAGCAAUAUUACGCGCC,-3.18 ± 0.24,-0.65 ± 0.13
UAGAAGCAAUAUUACGCGCG,-0.301 ± 0.12,-0.204 ± 0.13
UAGAAGCAAUAUUACGCUAU,-4.05 ± 0.27,-3.13 ± 0.27
UAGAAGCAAUAUUACGCUCG,-1.06 ± 0.13,-0.333 ± 0.12
UAGAAGCAAUAUUACGGAAC,-1.25 ± 0.34,
UAGAAGCAAUAUUACGGCAU,-1.96 ± 0.12,-0.323 ± 0.094
UAGAAGCAAUAUUACGGCUG,-0.338 ± 0.11,0.218 ± 0.15
UAGAAGCAAUAUUACGGGGG,,-2.25 ± 0.45
UAGAAGCAAUAUUACGGUGA,-1.28 ± 0.12,-0.667 ± 0.12
UAGAAGCAAUAUUACGGUUU,-3.09 ± 0.17,-2.28 ± 0.16
UAGAAGCAAUAUUACGUAUG,-1.01 ± 0.07,-1.14 ± 0.11
UAGAAGCAAUAUUACGUUCC,-2.51 ± 0.19,-0.539 ± 0.17
UAGCAGCAAUAUUACGAAUC,-3.68 ± 0.42,-2.03 ± 0.27
UAGCAGCAAUAUUACGACGG,-0.73 ± 0.09,-0.313 ± 0.12
UAGCAGCAAUAUUACGACUU,-0.541 ± 0.098,0.107 ± 0.11
UAGCAGCAAUAUUACGAGCA,-1.48 ± 0.13,0.249 ± 0.13
UAGCAGCAAUAUUACGAUUU,-2.03 ± 0.11,-0.879 ± 0.12
UAGCAGCAAUAUUACGCAUU,-2.38 ± 0.13,-1.08 ± 0.11
UAGCAGCAAUAUUACGCGCG,-1.09 ± 0.17,0.624 ± 0.17
UAGCAGCAAUAUUACGCGCU,-2.62 ± 0.12,-1.6 ± 0.12
UAGCAGCAAUAUUACGCUAA,-2.07 ± 0.26,-1.73 ± 0.27

Sequence,self-splicing fitness (ln) (30 °C),self-splicing fitness (ln) (37 °C)
UAGCAGCAAUAUUACGCUAU,-3.88 ± 0.23,-3.49 ± 0.37
UAGCAGCAAUAUUACGCUCU,-1.27 ± 0.087,-1.04 ± 0.088
UAGCAGCAAUAUUACGGCCG,-0.163 ± 0.071,0.0112 ± 0.085
UAGCAGCAAUAUUACGUACU,-1.74 ± 0.1,-0.434 ± 0.1
UAGCAGCAAUAUUACGUAGU,-2.15 ± 0.14,-2.48 ± 0.31
UAGCAGCAAUAUUACGUAUA,-1.89 ± 0.096,-0.924 ± 0.12
UAGCAGCAAUAUUACGUAUG,-1.13 ± 0.061,-0.563 ± 0.084
UAGCAGCAAUAUUACGUCAA,-1.79 ± 0.12,-1.21 ± 0.11
UAGCAGCAAUAUUACGUCCG,-0.746 ± 0.055,0.357 ± 0.08
UAGCAGCAAUAUUACGUUGC,-2.57 ± 0.21,-1.91 ± 0.21
UAGGAGCAAUAUUACGACGG,-2.88 ± 0.13,-0.471 ± 0.12
UAGGAGCAAUAUUACGAGUA,-2.81 ± 0.24,-1.93 ± 0.22
UAGGAGCAAUAUUACGCCAA,-3.23 ± 0.4,-2.13 ± 0.42
UAGGAGCAAUAUUACGCCGA,-2.76 ± 0.21,-0.577 ± 0.27
UAGGAGCAAUAUUACGCGUU,-4.38 ± 0.24,-1.37 ± 0.14
UAGGAGCAAUAUUACGCUAC,,0.223 ± 0.43
UAGGAGCAAUAUUACGCUUG,-1.18 ± 0.32,0.65 ± 0.36
UAGGAGCAAUAUUACGGCGC,-1.76 ± 0.36,-2.54 ± 0.41
UAGGAGCAAUAUUACGGCGU,-3.14 ± 0.24,-1.43 ± 0.28
UAGGAGCAAUAUUACGGGGU,-3.84 ± 0.4,-2.12 ± 0.35
UAGGAGCAAUAUUACGGUCA,-2.65 ± 0.47,-2.19 ± 0.26
UAGGAGCAAUAUUACGGUUU,-3.54 ± 0.3,-3.45 ± 0.39
